Assay results as given in patent US10005817 (EUMEDERIS PHARMACEUTICALS, dated 2018).
Non-standard residues stand in square brackets, D forms with d. No end group written: not given here. *: point of attachment. Dmt = Cc1cc(O)cc(C)c1C[C@H](N)C(=O)O; Tic = O=C(O)[C@@H]1Cc2ccccc2CN1; NHBn = c1ccc(CN*)cc1

Key:
delta2 opioid receptor = experiment: cell-based or functional assay
mu opioid receptor = experiment: cell-based or functional assay
mu opioid receptor, sequence (P35372 whole entry): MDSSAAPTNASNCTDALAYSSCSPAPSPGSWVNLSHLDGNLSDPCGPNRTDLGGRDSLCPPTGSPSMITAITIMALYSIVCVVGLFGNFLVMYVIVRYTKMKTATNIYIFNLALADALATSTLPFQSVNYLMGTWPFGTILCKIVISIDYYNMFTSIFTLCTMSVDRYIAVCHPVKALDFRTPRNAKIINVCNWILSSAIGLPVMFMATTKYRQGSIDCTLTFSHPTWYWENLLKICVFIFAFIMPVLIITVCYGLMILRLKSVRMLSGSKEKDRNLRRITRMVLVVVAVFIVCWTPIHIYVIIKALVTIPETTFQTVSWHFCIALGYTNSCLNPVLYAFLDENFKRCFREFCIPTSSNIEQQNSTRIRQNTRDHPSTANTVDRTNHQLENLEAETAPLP

Row | Binder | DOP antagonist IC50 (delta2 opioid receptor) | MOP agonist EC50 (mu opioid receptor)
1 | [Dmt][Tic]F[dK](1‑methyl β‑D‑glucuronyl)-NHBn [EU-A639] | < 0.1 nM | 280 nM
2 | H-[Dmt][Tic]FK(1'‑octyl β‑D‑glucuronyl)-NH2 [EU-A180] | < 0.1 nM | 36 nM
3 | [Dmt][Tic]FK(1‑methyl β‑D‑glucuronyl)-NHBn [EU-A620] | < 0.1 nM | 480 nM
4 | H-[Dmt][Tic]FK(1'‑methyl β‑D‑glucuronyl)-NH2 [EU-A178] | < 0.1 nM | –
